Assay results: the RNAGym collection of RNA variant scans (doi:10.1073/pnas.2313332121)

B1: TPR t1 (parent)
chain: GACCAAUCUGCCCUCAGAGCUCGAGAACAUCUUCGGAUGCAGAGGAGGCAGGCUUCGGUGGCGCGAUAGCGCCAACGUCCUCAACCUCCAAUGCAUCCCACCACAUGAUGAUGCCUGAAGAGCCUUGGUUUUUUG

Variants of: B1
Test: polymerase ribozyme fitness, log enrichment relative to wild type (log ratio); higher = more active; in vitro selection for triplet polymerase activity
In short: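 To select mutant libraries of each subunit of a heterodimeric triplet polymerase ribozyme, built by PCR and transcribed, each was annealed with a biotinylated primer, partner subunit and triplets, then incubated frozen at −7 °C. Extended constructs were gel-excised, captured on streptavidin beads and amplified by RT-PCR, in one round carried out in triplicate. Illumina sequencing of input and output libraries kept genotypes with ≥10 input reads and ≥1 read per output. Fitness is the base-2 logarithm of genotype enrichment relative to wild-type enrichment, from inverse-variance-weighted replicate averages.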

Compared with GACCAAUCUGCCCUCAGAGGUCGAGAACAUCUUCGGAUGCAGAGGAGGCAGGCUUUGGUGGCGCGAUAGCGCCAACGUCCUCAGCCUCCAAUGCAUCCCACCACAUGAUGCUGCGUGAAGCGCCUUGGUUUAUUG, GACCAAUCUGCCCUCAGAGGUCGAGAACAUCUUCGGAUGCAGAGGAGGCCGGCUUCGGUGGCGCGAUAGCGCCAACGUCUUCAACCUCCAAUACAUCCCACCACAUGAUGAUGCCUGAACAGCCGUGGUUUUUUG is lower in “polymerase ribozyme fitness (log ratio)” value: -3.92 for the first, -6.66 for the second.

First: GACCAAUCUGCCCUCAGAGGUCGAGAACAUCUUCGGAUGCAGAGGAGGCAGGAUUCUGUGGCGCGAUAGCGCCAACGUCCUCAACCUCCACUGCGUCCCACCACAUGAGGAUGCCUGAAGAGCCUUGGUUUUUUG
Second: GACCAAUCUGCCCUCAGAGGUCGAGAACAUCUUCGGAUGCAGAGGAGGCAGGCUUCGGUAGCGCGAUAGCGCCAACGUCCUCAACCUCCAAUGCAUCCCACCACAUGAUGAUGCCUGAACAGCCUUGGUUUUUUG
The “polymerase ribozyme fitness (log ratio)” value of the first is higher: -3.11 for the first, -4.56 for the second.

Compared with GACCAAUCUGCCCUCAGAGGUCGAGAACAUCUUCGGAUGCAGGGGAGACAGGCUUCGGUGGCGCGAUAGCGGCAACGUCCUCAACCUCCAAUGCAUCCCACCACAAGAUGAUGCCUGAAGAGACUUGGAUUUUUG, GACCAAUCUGCCCUCAGAGGUCGAGAACAUCUUCGGAUGCAGAGGAGGCAAGCUUCGGUGACGCGAUAGCGCCAACGUCCUCAAGCUCCAAUGCAUCCCACCACAUGAUGAUGCCUGAAGUGCCUUGGUUUUUUG is lower in “polymerase ribozyme fitness (log ratio)” value: -6.54 for the first, -7.66 for the second.

First: GACCAAUCUGCCCUCAGAGGUCGAGAACAUCUUCGGAUGCAGAGGAGGCAGGCUUCGGUGGCGCGAUAGCGCCAACGUCCUCAACCUCCAAUGCAUACCACCACAUGAUGAUGCCCGAAGAGGCUUGGUUUUUUG
Second: GACCAAUCUGCCCUCAGAGGUCGAGAACAUCUUCGGAUGCAGAGGAGGCAGGCUUCGGUGGCGCGAUAGCGCCAAUGUCCUCAACCUCCAAUCCGUCCCACCACAUGAUGAUGCCUGAAGAGCAUUGGUUUUUUG
The “polymerase ribozyme fitness (log ratio)” value of the first is lower: -5.78 for the first, -4.72 for the second.

Compared with GACCAAUCUGCCCUCAGAGGUCGAGAACAUCUUCGGAUGCAGAGGAGGCAGGCUUCGGUGGCGCGAUAGCGCCAACGUCCUCAACCUCCAAUGCAUCCCACCACAUGAUGAUGCCUGAAGAGGCUUGGUUUUUUG, GACCAAUCUGCCCUCAGAGGUCGAGAACAUCUUCGGAUGCAGAGGAGGCAGGCUUCGGUGGCGCGAUAGCGCCAACGUCCUCAACCUCCAAUGCAUCCCACCACAUGAUGAUGCCUGUAGAGCCUUGGUUUUUUG is lower in “polymerase ribozyme fitness (log ratio)” value: -2.95 for the first, -3.53 for the second.

Compared with GACCAAUCUGCCCUCAGAGGUCGAGAACAUCUUCGGAUGCAGAGUAGGCAGGCUUCGGUGACGCGAUAGCGCCAACGUCCUCAACCUCCAAUGCAUCCCACCACAUGAUGAUGCCUGAAGAGCCUUGGUUUUUUG, GACCAAUCUGCCCUCAGAGGUCGAGAACAUCUUCGGAUGCAGUGGAGGCAGGCUUCGGUGGCGCGAUAGCGCCAACGUCCUCAACCUCCAAUGCAUCCCACCACAUGAUGAUGCCUGAAGAGCCUUGGUUUUUUG is higher in “polymerase ribozyme fitness (log ratio)” value: -4.19 for the first, -3.89 for the second.

Going from GACCAAUCUGCCCUCAGAGGUCGAGAACAUCUUCGGAUGCAGAGGAGGCAGGCUUCGGUGGCGCGAUAUCGCCAACGUCCUCAACCUCCAAUGCAUCCUACCACAUGAUGAUGCCUGAAGAGCCUUGGUUUUUUG to GACCAAUCUGCCCUCAGAGGACGAGAACAUCUUCGGAUGCAGAGGAGGCAGGCUUCGGUGGUGCGAUAGCGCCAACGUCCUCAACCUCCAAUGCAUCCCACCACAUGAUGAAGCCUGAAGAGCCUUGGUUUUUUG, the “polymerase ribozyme fitness (log ratio)” value rises from -5.06 to -1.31.

Going from GACCAAUCUGCCCUCAGAGGUCGAGAACAUCUUCGGAUGCUGAGGAGGCAGGCUUCGGUGGCGCGAUAGCGCCAACGUCCUCAACCUCCAAUGCAUCCCACCACAUGAUGAUGCUUGAAGAGCCUUGGUUUUUUG to GACCAAUCUGCCCUCAGAGGUCGAGAAUAUCUUCGGUUGCAGUGAAGGCAGGCUUCGGUGGCGCGAUAGCGCCAACGUCCUCAACCUCCAAUGCAUCCCACCACAAGAUGAUGCCUGAAGAGGCUUGGUUUUUUG, the “polymerase ribozyme fitness (log ratio)” value falls from -4.6 to -7.36.

First: GACCAAUCUGCCCUCAGAGGUCGAGAACAUCUUCGGAUGUACAGGAGUCAGGCUUCGGUGGCGCGAUAGCGCCAACGUCCUCAACCUCCAAUGCAUCCCACCACAUGAAGAUGCCUGAAGAGCCUUGGUUUUUUG
Second: GACCAAUCUGCCCUCAGAGGUCGAGAACAUCUUCGGAUGCAGAGGAGGCAGGCUUCGGUGGCGCGAUAACGCCAACGUCCUCAACCUCCAAUGCAUCCCACCACAUGAUGAUACCUGAAGAGCCUUGGUUUUUUG
The “polymerase ribozyme fitness (log ratio)” value of the first is higher: -4.15 for the first, -5.37 for the second.

First: GACCAAUCUGCCCUCAGAGGUCGAGAACAUCUUCGGAUGCAGAGGAGGCAGGCUUAGGUGGCGCGAUAGCGCCAACGUCCUCAACCUCCAAUGCAUCCCACCACAUGAUGAUGCCUGAAGAGCUUUGGUUUUUUG
Second: GACCAAUCUGCCCUCAGAGAUCGAGAACAUCUUCGGAUGCAGAGGAGGCAGGCUUCGGUGGCGCGAUAGCGCCAACGUCCUCAACCUCCAAUGCAACCCACGACAUGAUGAUGACUGAAGAGCCUUGGUUUUUUG
The “polymerase ribozyme fitness (log ratio)” value of the first is higher: -4.05 for the first, -5.84 for the second.

In the case of GACCAAUCUGCCCUCAGAGGUCGAGAACAUCUUCGGAUGCAGAGGAGGCAGGCUUCGGUGGUGCGAUAGCGCCAACGUCCUCAACCUCCAAUGCAUCCCACCACAUGAUGAUCCCUGAAGAGCCUUGGUUUUUUG, the “polymerase ribozyme fitness (log ratio)” value is reported as -1.25.
